This note sets out measurements from patent US20230056815A1 (VIELA BIO, published 2023).

For assay [1], the target named is T1, human soluble FLT3L (recombinant huFLT3L) (human, UniProt P49771 27-184).
T1 sequence (looked up): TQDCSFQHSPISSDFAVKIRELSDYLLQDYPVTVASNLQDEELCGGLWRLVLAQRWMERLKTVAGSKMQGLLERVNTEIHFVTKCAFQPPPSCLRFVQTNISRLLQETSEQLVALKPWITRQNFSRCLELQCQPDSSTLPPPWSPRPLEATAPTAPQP
Put plainly: cell-based or functional assay.

Assay [2] addresses cynomolgus monkey soluble FLT3L (cynomolgus monkey). Put plainly: cell-based or functional assay.
Assay [3] deals with T1, human soluble FLT3L (recombinant …). Kind of assay: cell-based or functional assay. The source holds these as a separate data set.
Assay [4] addresses T2, recombinant human stem cell factor (SCF) (human, UniProt P21583 26-189).
T2 construct: also called huSCF; KIT-ligand
Kind of assay: ELISA on coated recombinant human SCF. How it is done:
(§1) To test this, an ELISA plate was coated with 2 µg of recombinant human SCF or CSF1. After washing, the plate was blocked with 3% milk in Tris-Phosphate Buffered Saline (TPBS) and lead antibodies were added in serial (×2) dilution, starting at 50 µg/ml. After incubation, unbound antibody was removed by washing and bound antibody was detected using anti-human IgG-HRP in combination with TMB substrate for color development. Commercially available goat anti-SCF pAb and mouse anti-CSF1 mAb were used as positive binding controls.

In assay [5] the target is T3, recombinant human colony stimulating factor 1 (CSF1) (human, UniProt P09603 33-190, limits assumed).
T3 construct: also called huCSF1; huCSF
T3 sequence (looked up): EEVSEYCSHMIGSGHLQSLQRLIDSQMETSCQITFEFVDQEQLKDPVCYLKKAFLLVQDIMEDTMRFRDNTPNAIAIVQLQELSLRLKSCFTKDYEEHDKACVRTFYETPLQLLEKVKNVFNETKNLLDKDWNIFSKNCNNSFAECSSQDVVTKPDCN
Kind of assay: ELISA on coated recombinant human CSF1. How it is done: as §1

Assay [6] has as its target T4, cynomolgus monkey FLT3L on CHO cells (cynomolgus monkey).
T4 construct: whole, on cells; also called cell surface cyno FLT3L
Put plainly: flow cytometry on CHO cells expressing full-length cyno FLT3L, PE anti-hu IgG. How it is done: (§2) Consistent with this, cell surface binding to human, cyno, and mouse FLT3L was evaluated by transfecting Chinese hamster ovary (CHO) cells with the respective full-length protein for each species. Candidate clones were incubated with FLT3L-expressing cell lines for 1 hour at 4° C. before being washed twice to remove unbound antibody. Cells were then incubated with PE-labeled goat anti-hu IgG secondary detection pAb to quantitate bound antibody which was measured by flow cytometric analysis of PE signal. The huFLT3-Fc construct, on a hu IgG backbone, was used as a positive control reagent for FLT3L expression as it cross reacts with cyno and mouse, in addition to human ligand.
(§3) As differences were apparent in the degree of receptor occupancy for each clone, both EC50 and max occupancy were noted (expressed as percent relative to FLT3-Fc) and taken into account in the final evaluation. Results are shown in Table 4 for human, cyno, and mouse FLT3L expressed in CHO cells.

For another assay, the target named is T5, mouse FLT3L on CHO cells (mouse, UniProt P49772 27-232).
T5 construct: whole, on cells; also called cell surface mouse FLT3L
T5 sequence (looked up): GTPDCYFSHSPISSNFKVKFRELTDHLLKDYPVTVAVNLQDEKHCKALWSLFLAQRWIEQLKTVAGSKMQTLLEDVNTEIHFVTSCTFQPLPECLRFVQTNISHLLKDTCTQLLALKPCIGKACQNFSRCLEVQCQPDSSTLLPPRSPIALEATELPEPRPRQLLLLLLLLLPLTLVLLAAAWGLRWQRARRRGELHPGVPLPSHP
Kind of assay: flow cytometry on CHO cells expressing mouse FLT3L, anti-hu IgG-PE detection. As for the experimental part:
as §2

A further assay addresses T6, mouse soluble FLT3L (mouse, UniProt P49772 27-189).
T6 construct: extracellular domain; also called mouse sFLT3L; muFLT3L
T6 sequence (looked up): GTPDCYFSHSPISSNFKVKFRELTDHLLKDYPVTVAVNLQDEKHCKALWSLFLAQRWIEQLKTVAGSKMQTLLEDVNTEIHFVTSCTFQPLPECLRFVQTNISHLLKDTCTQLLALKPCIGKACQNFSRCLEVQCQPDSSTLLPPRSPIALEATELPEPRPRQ
Put plainly: inhibition of FLT3 downregulation on RS4;11 cells by soluble mouse FLT3L (N/A in Table 3). As for the experimental part:
Screening assay conditions were further refined to determine ideal cell culture conditions for evaluating anti-FLT3L candidate clones. Final conditions were: 50,000 RS4;11 cells per well incubated with 96 pM rhuFLT3L with or without anti-FLT3L mAb candidate clones in complete Roswell Park Memorial Institute (RPMI) media with one percent bovine serum albumin (BSA) for 2 hours in an humidified incubator set at 37° C., 5% CO2. Subsequent downregulation of FLT3 expression was determined by flow cytometry as measured either as raw MFI or % downregulation. […] (FIG. 3A). Assay efficacy was confirmed using a commercially available mouse anti-huFLT3L antibody control (MAB608, R&D Systems) (FIG. 3B). Due to the cross-species reactivity of FLT3 with its ligand, this assay was effective for testing clones against human, cyno, and rodent FLT3L, despite being a human cell line. For mouse FLT3L, the EC80 was 36 pM.
Upon ligation of FLT3L to FLT3, the receptor dimerizes, autophosphorylates, and propagates a signaling cascade once internalized. This process, measured by FLT3 downregulation, can be inhibited by antibodies that bind FLT3L. Thus, lead candidates were tested for their ability to inhibit FLT3 downregulation on RS4;11 cells by binding human, mouse, or cynomolgus monkey (cyno) soluble FLT3L (sFLT3L). […] FLT3 expression on RS4;11 cells was determined using flow cytometry and reported as MFI.

For assay [7], the target named is T7, human FLT3L on the cell surface (human, UniProt P49771 27-235).
T7 construct: whole, on cells; The assay field of each row says which cells carried it; also called cell-surface FLT3L; huFLT3L-expressing CHO cells
T7 sequence (looked up): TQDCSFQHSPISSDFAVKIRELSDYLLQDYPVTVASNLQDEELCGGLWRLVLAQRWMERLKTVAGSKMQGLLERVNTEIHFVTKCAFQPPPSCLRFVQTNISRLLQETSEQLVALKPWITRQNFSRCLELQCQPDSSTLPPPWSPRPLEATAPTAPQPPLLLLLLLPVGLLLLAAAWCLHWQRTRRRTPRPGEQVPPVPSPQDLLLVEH
Kind of assay: flow cytometry on CHO cells expressing full-length human FLT3L, PE anti-hu IgG; CHO cells transfected with full-length human FLT3L, PE anti-hu IgG. As for the experimental part:
as §2, §3

Assay [8] has as its target T7, human FLT3L on the cell surface. Kind of assay: flow cytometry on CHO cells expressing full-length human FLT3L, PE anti-hu IgG; CHO cells transfected with full-length human FLT3L; maximum occupancy relative to FLT3-Fc. As for the experimental part:
as §2, §3

T2 sequence (P21583 26-189 limits assumed): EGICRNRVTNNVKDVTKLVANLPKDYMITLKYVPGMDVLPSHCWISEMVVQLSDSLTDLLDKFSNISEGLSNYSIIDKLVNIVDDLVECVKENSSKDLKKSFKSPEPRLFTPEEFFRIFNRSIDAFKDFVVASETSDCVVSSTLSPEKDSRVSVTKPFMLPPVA

B1: CAT5D9 antibody (IgG1 TM format) (antibody, V domains shown)
VH: QVQLVQSGAEVKKPGSSVKVSCKISGGTFSSYALSWVRQAPGQGLEWMGGIIPVFRTASYAQKFQGRVTITVDESASTGYIELSSLKSEDTATYYCASNNYVWGSYRFWGQGTTVTVSS
VL: NFMLTQPHSVSESPGKTVTISCTRTSGNIAGYFVQWYQQRPGSSPTTVIYEDYQRPSGVPDRFSGSIDRSSNSASLTISGLKPDDEADYYCQSYDDTSQGVFGAGTKVTVLG
notes: also called clone 5D9; parental 5D9
B1: the “IC50 (nM), inhibition of FLT3 downregulation on RS4;11 cells” value worked out at 385 nM in assay [1] and 564 nM in assay [2]. In [3], the “IC50 (nM) against 0.476 nM FLT3L, ERK phosphorylation in CD133+ stem cells” value worked out at 187 nM. In addition, the “IC50 (nM) against 0.476 nM FLT3L, MEK phosphorylation in CD133+ stem cells” value in assay [3] came out at 181 nM. Also, the binding result in [4] is given as “no binding (tested: about 0.3 uM)”; in assay [5], “no binding (tested: about 0.3 uM)”; with mouse FLT3L on CHO cells, “no binding (tested: x = -7.2 (x axis without title or unit))”; with mouse soluble FLT3L, “no binding”. In addition, the half-maximal effective concentration (EC50) in [6] worked out at 1.1 nM; in [7], 0.157 nM. The “maximum occupancy (% relative to FLT3-Fc)” value in assay [6] turned out to be 100%; in assay [8] it was 40%.
